Reference: patent US8809529B2, “Imidazo[1,2-α]pyrazine derivatives” (Promega Corporation, priority 2010, dated 2014)
Where two headings read alike, the source gives them in different places.

B1: L27V: 9B8 opt+K33N variant with L27V, T39T, K43R, Y68D (protein)
chain: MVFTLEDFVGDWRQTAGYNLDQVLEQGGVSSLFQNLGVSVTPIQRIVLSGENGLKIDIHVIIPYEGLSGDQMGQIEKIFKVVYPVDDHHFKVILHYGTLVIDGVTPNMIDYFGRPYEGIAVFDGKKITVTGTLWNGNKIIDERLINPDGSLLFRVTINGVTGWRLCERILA
B2: 9B8 opt: codon optimized version of the 9B8 variant (protein)
chain: MVFTLEDFVGDWRQTAGYNLDQVLEQGGLSSLFQKLGVSVTPIQKIVLSGENGLKIDIHVIIPYEGLSGYQMGQIEKIFKVVYPVDDHHFKVILHYGTLVIDGVTPNMIDYFGRPYEGIAVFDGKKITVTGTLWNGNKIIDERLINPDGSLLFRVTINGVTGWRLCERILA
B3: 9B8: IV variant with Q18L, F68Y, L72Q, M75K; in Tables 12, 22, 23, 26, 27 “9B8” stands for 9B8 opt (protein)
chain: MVFTLEDFVGDWRQTAGYNLDQVLEQGGLSSLFQKLGVSVTPIQKIVLSGENGLKIDIHVIIPYEGLSGYQMGQIEKIFKVVYPVDDHHFKVILHYGTLVIDGVTPNMIDYFGRPYEGIAVFDGKKITVTGTLWNGNKIIDERLINPDGSLLFRVTINGVTGWRLCERILA

Legend:
[1] = Stability of secreted OgLuc variants in saved media; type: physicochemical; settings: secreted variant in media
Experimental: To determine if the secretion signal sequence of OgLuc facilitates its secretion, the OgLuc variants 9B8, V2 and L27V were cloned into pF4Ag containing an N-terminal OgLuc secretion signal sequence. The variants were also cloned into vectors without the secretion signal sequence. CHO or HeLa cells were then plates at 100,000 cells/well in 1 mL F12 media with 10% FBS and 1× sodium pyruvate (CHO cells) or DMEM with 10% FBS and 1× sodium pyruvate (HeLa cells) into 12-well plates and incubated overnight at 37° C., 5% CO2.
After the overnight incubation, the cells were transfected with 1 μg plasmid DNA containing 9B8, V2, or L27V with or without the secretion signal sequence using the TRANSIT®-LT1 transfection reagent (Minis Bio) and OPTI-MEM® media (Invitrogen). The cells were again incubated overnight at 37° C., 5% CO2.
After the second overnight incubation, the media was removed and saved for analysis. […] To 10 μL of cell lysate or saved media from each sample, 50 μL assay buffer with 40 μM FBI-3939 was added, and luminescence measured as described above.
To determine the stability of the secreted variants, 150 μL aliquots of the saved media from each sample was placed at 37° C. or 50° C. The aliquots were then removed at different time points ([…]), frozen on thy ice, and kept at −20° C. until assayed. To assay for stability, the media aliquots were thawed to room temperature, and 10 μL of each aliquot was mixed with assay buffer with PBI-3939 (pH 6.0) as described above. Luminescence was measured as above, and the half-life (t50) determined (Table 34).

[2] = type: biochemical, E. coli
Experimental: The signal stability of 15C1 with PBI-3945 and 9B8 with PBI-3889 was measured and compared to IV. E. coli containing plasmid DNA encoding 15C1, 9B8, or IV were grown and induced as described previously in 8-well replicates. Cells were lysed using a lysis buffer containing of 300 mM HEPES pH 8.0, 0.3× Passive Lysis Buffer (“PLB”; Promega Corp. Cat. No. E194A), 0.3 mg/mL lysozyme, and 0.003 U/μL RQ1 DNase. Lysates were diluted 1:1000 in lysis buffer and measured for luminescence using a TECAN® INFINITE® F500 luminometer. Measurements were taken immediately after the addition to 10 μL of diluted lysate sample of 50 μL of “Glo” 0.5% TERGITOL assay buffer (“0.5% TERGITOL”), which contained 150 mM KCl, 1 mM CDTA, 10 mM DTT, 100 mM thiourea, 0.5% TERGITOL® NP-9 (v/v), and 20 μM of either novel coelenterazines PBI-3945 or PBI 3889.
The signal stability of the variants was determined by re-reading the plate every 30 seconds for a length of time after the addition of the assay buffer to the sample. The signal half-life was determined from these measurements using methods known in the art. The average signal half-life was compared between the variants and IV. […] At t=10 min, luminescence for 15C1 with PBI-3945 and 9B8 with PBI-3889 were equivalent.
E. coli lysates containing the variants were prepared and analyzed as described previously except the assay buffer contained 0.25% TERGITOL® NP-9 (v/v), 100 mM MES pH 6.0, 1 mM CDTA, 150 mM KCl, 35 mM thiourea, 2 mM DTT, and 20 μM PBI-3939.

[3] = test system: cAMP-response element (CRE); assay: cAMP transcriptional reporter in HEK293 cells (Example 36); settings: for fold-induction: FSK 5 hrs
[4] = type: physicochemical, E. coli; settings: for ½ life: 50° C.
Experimental: Lysates of E. coli containing 15C1, 9B8, 9F6, 8A3 or IV and E. coli expressing hRL (SEQ ID NO: 30 and 31) were prepared from induced cultures as described previously. Lysate samples were diluted 1:1000 with a buffer containing 10 mM HEPES pH 7.5 with 0.1% gelatin. Diluted lysate (100 μL) samples, in replicate 96-well plates, were incubated at 50° C. At different time points, plates were placed at −70° C. (minus seventy degrees Celsius). Prior to measuring the luminescence as described previously, each plate was thawed at room temperature, i.e., 22° C., for 10 min. Samples (10 μL of each thawed sample) were assayed using native coelenterazine as a substrate. Luminescence was measured immediately after addition of assay buffer for each time point plate. The half-life of the protein, which indicated protein stability, was calculated from the luminescence data for each time point using methods known in the art.

| Molecule | ½ life 37° C. [1] [days] | ½ life 50° C. [1] [h] | signal half life [2] [h] | induced luminescence higher than Luc2 transcriptional reporter [3] | induced luminescence higher than induced Renilla transcriptional reporter [3] | fold-induction ([3]; 30 ng of DNA) | fold-induction ([3]; 100 ng of DNA) | ½ life [4] [h] | ½ life ([4]; native coelenterazine as substrate) [h] | % remaining at t = 4 hrs ([4]; 4 h) [%] | signal half-life [2] |
| --- | --- | --- | --- | --- | --- | --- | --- | --- | --- | --- | --- |
| B1 | 17 | 11 | 1.9 |  |  |  |  |  |  |  |  |
| B2 |  |  |  | approximately 1.5 logs | approximately 2.5 logs | 360 | 109 |  |  |  |  |
| B3 | 8 | 3 | 1.23 |  |  |  |  | 5.8 | 5.777 | 61 | at least 30 min |
